From patent US6391302 (LUDWIG INSTITUTE FOR CANCER RESEARCH, dated 2002)
Substitutions are numbered along the chain they refer to.

T1: human FB5 (endosialin) cancer antigen (human, UniProt Q9HCU0 18-757)
T1 construct: whole, on cells; The antigen is presented on LA1-5s cells; also called FB5 antigen
T1 sequence (looked up): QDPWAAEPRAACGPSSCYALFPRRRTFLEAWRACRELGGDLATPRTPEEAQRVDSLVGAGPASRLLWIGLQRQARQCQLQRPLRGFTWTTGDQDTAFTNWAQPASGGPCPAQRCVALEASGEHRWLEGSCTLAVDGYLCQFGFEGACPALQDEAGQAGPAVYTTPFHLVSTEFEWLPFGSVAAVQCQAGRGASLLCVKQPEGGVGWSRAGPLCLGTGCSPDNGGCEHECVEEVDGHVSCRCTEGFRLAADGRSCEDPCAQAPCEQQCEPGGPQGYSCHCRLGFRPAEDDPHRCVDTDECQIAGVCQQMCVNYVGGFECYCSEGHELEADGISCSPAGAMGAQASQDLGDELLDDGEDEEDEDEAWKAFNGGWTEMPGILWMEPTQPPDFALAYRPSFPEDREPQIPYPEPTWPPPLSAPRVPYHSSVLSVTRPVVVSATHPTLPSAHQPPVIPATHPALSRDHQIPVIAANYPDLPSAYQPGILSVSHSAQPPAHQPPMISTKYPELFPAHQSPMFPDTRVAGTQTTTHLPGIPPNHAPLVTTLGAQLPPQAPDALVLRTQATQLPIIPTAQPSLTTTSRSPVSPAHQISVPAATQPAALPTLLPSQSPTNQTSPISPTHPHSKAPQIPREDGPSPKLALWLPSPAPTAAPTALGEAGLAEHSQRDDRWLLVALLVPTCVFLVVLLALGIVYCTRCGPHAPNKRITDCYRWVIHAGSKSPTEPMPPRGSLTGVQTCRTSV

B1: FB5HuVHK/HuVK (antibody, V domains shown)
VH: QVQLQESGPGLVRPSQTLSLTCTASGYTFTDYVIHWVKQPPGRGLEWIGYINPYDDDTTYNQKFKGRVTMLVDTSSNTAYLRLSSVTAEDTAVYYCARRGNSYDGYFDYSMDYWGQGSLVTVSS
VL: DIQMTQSPSSLSASVGDRVTITCRASQNVGTAVAWLQQTPGKAPKLLIYSASNRYTGVPSRFSGSGSGTDYTFTISSLQPEDIATYYCQQYTNYPMYTFGQGTKVQIK
B2: FB5HuVH/HuVK (antibody, V domains shown)
VH: B1 VH with K38R
VL: B1 VL
notes: also called reshaped antibody FB5HuVH/HuVK
B3: FB5HuVHK,QA,LT,VK/HuVK (antibody, V domains shown)
VH: B1 VH with R67Q, V68A, M70L, L71T, D73V, T74K
VL: B1 VL

Target: T1, human FB5 (endosialin) cancer antigen
Assay: mixed hemadsorption (MHA) rosetting assay on LA1-5s human neuroblastoma cells, protein A-conjugated red blood cells as indicator

Molecule	Concentration of antibody for 50% rosetting
chimeric FB5 antibody	3 ng/mL
murine monoclonal antibody mAbFB5	3 ng/mL
B1	16 ng/mL
B2	80 ng/mL
B3	16 ng/mL
